The values below come from patent publication EP4714976A1.

Assay [1] addresses recombinant mouse FGFR2b (mouse) (UniProt P21803). Kind of assay: BLI, antibody on AHC2 sensor. (In general: BLI is a label-free optical method that tracks binding on a fibre tip over time.)
Assay [2] addresses extracellular domain of the FGFR2b protein (NP_075259.4) (UniProt P21802). Description: phage ELISA.

extracellular domain of the FGFR2b protein (NP_075259.4), sequence (P21802 other isoform, or with tags, fused parts or gaps): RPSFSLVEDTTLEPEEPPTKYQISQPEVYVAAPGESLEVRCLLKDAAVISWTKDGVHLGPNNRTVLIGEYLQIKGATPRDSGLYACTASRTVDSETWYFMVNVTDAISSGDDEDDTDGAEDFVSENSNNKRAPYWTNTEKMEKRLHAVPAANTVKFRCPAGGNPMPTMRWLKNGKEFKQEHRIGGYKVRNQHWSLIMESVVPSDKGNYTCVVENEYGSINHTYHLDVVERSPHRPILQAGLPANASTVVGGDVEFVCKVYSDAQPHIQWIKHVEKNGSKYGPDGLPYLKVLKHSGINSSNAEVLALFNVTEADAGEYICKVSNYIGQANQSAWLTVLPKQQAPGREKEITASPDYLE
recombinant mouse FGFR2b (mouse), sequence (P21803 22-377): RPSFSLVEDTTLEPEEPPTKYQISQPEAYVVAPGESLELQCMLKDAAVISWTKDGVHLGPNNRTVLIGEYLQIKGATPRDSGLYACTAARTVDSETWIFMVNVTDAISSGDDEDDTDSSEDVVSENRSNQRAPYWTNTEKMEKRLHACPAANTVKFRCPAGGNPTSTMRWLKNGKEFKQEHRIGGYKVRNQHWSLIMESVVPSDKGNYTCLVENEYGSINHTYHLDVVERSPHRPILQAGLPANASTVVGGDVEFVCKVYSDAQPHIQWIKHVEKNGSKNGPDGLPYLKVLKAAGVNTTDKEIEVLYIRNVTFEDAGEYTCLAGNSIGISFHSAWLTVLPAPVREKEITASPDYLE

B1: 3A8 scFv-Fc (Fc fusion)
chain: QVQLQQSGAELVKPGASVKMSCKASGYTFTIYNIHWVRQTPGQGLEWIGLIYPDNGDTSYNQKFKAKATLTADKSSSTAYMQLSSLTSEDSAVYYCARGGFDYWGQGTSLTVSSGGGGSGGGGSGGGGSDIVMTQSQKFMSTSVGDRVSVTCKASQNVGTNVAWYQQKPGQSPKALIYSASYRYSGVPDRFTGSGSGTDFTLTISNVQAEDLADYFCQQHYSTPYTFGGGTKLEMKESKYGPPCPPCPAPEAAGGPSVFLFPPKPKDTLMISRTPEVTCVVVDVSQEDPEVQFNWYVDGVEVHNAKTKPREEQFNSTYRVVSVLTVLHQDWLNGKEYKCKVSNKGLPSSIEKTISKAKGQPREPQVYTLPPSQEEMTKNQVSLTCLVKGFYPSDIAVEWESNGQPENNYKTTPPVLDSDGSFFLYSKLTVDKSRWQEGNVFSCSVMHEALHNHYTQKSLSLSLG
A word on the Kd: it is the constant that tells how readily two partners part at equilibrium. A word on the koff: it is a measure of how fast the partners let go of each other. One may read the kon as the rate constant with which the complex forms. Consider B1, for which, in assay [1], the Kd came to 7.17 nM, the koff worked out at 0.000306 s⁻¹ and the kon amounted to 42700 M⁻¹ s⁻¹.

B2: 1G6 scFv displayed on phage (scFv)
scFv: EIQLQQSGAELVKPGASVKMSCKASGYTFRYYNMHWVKRTPGQGLEWIGLIYPDNGDTSYNQKFKGKATLTADTSSSTAYMQLSSLTSEDSAVYYCARGGLDYWGQGTSLTVSSGGGGSGGGGSGGGGSNIVMTQSHKFMSTSVGDRVSITCKASQDVNTDVAWYQQKPGQSPKLLIYSASYRYTGVPTRFTGSGSGTDFTFTISGVQAEDLADYYCQQHYNTPYTFGGGTKLELK
Molecule B2 registered an OD (450 nm) value in assay [2] of 2.44.

B3: 3E1 scFv displayed on phage (scFv)
scFv: QVQLQQPGAEVVKPGASVKMSCKASGYTFTDYYIHWVKQTPGQGLEWIGAIYPDNGDTSYNQKFKVKATLTADKSSSTAYMQLSSLTSEDSAVYYCARAFTYWGQGTLVTVSAGGGGSGGGGSGGGGSDILITQSPASLSASVGETVTITCGASENIYGALNWYQRKQGKSPQLLIYGATNLADGMSSRFSGSGSGRQYSLKISSLHPDDVATYYCQNVLSTPYTFGGGTKLEIK
Take B3: the OD (450 nm) value in assay [2] amounted to 2.17.

B4: 3E2 scFv displayed on phage (scFv)
scFv: EIQLQQSGAELVKPGASVKMSCKASGYTFSFYNMHWVKRTPGQGLEWIGLIYPDNGDTSYNQKFKGKATLTADTSSSTAYMQLSSLTSEDSAVYYCARGGLDYWGQGTSLTVSSGGGGSGGGGSGGGGSNIVMTQSQKFMSTSVGDRVSVTCKASQNVGTNVAWYQQKPGQSPKALIYSASYRYTGVPDRFTGSGSGTDFTFTISSVQAEDLAVYYCQQHYSTPYTFGGGTKLEIK
For the molecule B4, the OD (450 nm) value in assay [2] is 1.87.

B5: 3D7 scFv displayed on phage (scFv)
scFv: QVQLQQSGAELVKPGASVKMSCKASGYTFSFYNMHWVKRTPGRGLEWIGLIYPDNGDTSYNQKFKGKATLTADTSSSTAYMQLSSLTSEDSAVYYCARGGLDYWGQGTSLTVSSGGGGSGGGGSGGGGSEIVLTQSPASLAVSLGQRATISCKASQSVDYDGDSYMNWYQQKPGQPPKLLIYGISNRFSGVPDRFSGSGSGTDFTLKISTIKPEDLGMYYCLQGTHQPYTFGGGTKLEIK
For B5, the OD (450 nm) value in assay [2] came out at 2.2.

B6: 2B1 scFv displayed on phage (scFv)
scFv: EVQLQQSGAELVKPGASVKMSCKASGYTFASYNLHWVKQTPGQGLEWIGLIYPENGDTSYNQKFKGKATLTADKSSSTAYIQLSSLTSEDSAVYFCARGGFDYWGQGTSLTVSSGGGGSGGGGSGGGGSDIQMIQSPASLSVSVGETVTITCRASENIYSNLAWYQQKQGKSPQLLVYNAKTLADGVPSRFSGSGSGTQYSLKINSLQPEDFGSYYCQHFWSTPYTFGGGTKLEIK
Molecule B6 returned an OD (450 nm) value in assay [2] of 2.33.

B7: 3F11 scFv displayed on phage (scFv)
scFv: QVQLQQSGAELVKPGASVKMSCKASGYTFAPYNIHWVRQTPGQGLEWIGLIYPDNGDTSYNQKFKAKATLTADKSSSTAYMQLSSLTSEDSAVYYCARGGFDYWGQGTSLTVSSGGGGSGGGGSGGGGSDIVMTQSQKFMSTSVGDRVSVTCKASQNVGTNVAWYQQKPGQSPKALIYSASYRYSGVPDRFTGSGSGTDFTLTISNVQSEDLAEYFCQQHYSTPFTFGSGTKLEIK
The molecule B7 yielded an OD (450 nm) value in assay [2] of 2.
